Experimental data reported in patent US20240360242A1 (KISOJI BIOTECHNOLOGY, published 2024).
Substitutions are numbered along the chain they refer to. Each block holds one binder with its values, some of them ahead of it.

Tests used:
[1] = target: T1, BSA (bovine, UniProt P02769); assay: ELISA on coated recombinant protein, 200 nM antibody, RLU
T1 construct: also called bovine serum albumin

[2] = target: T2, recombinant human EpCAM (human, UniProt P16422 24-265); assay: as above
T2 construct: also called rhEpCAM
T2 sequence (looked up): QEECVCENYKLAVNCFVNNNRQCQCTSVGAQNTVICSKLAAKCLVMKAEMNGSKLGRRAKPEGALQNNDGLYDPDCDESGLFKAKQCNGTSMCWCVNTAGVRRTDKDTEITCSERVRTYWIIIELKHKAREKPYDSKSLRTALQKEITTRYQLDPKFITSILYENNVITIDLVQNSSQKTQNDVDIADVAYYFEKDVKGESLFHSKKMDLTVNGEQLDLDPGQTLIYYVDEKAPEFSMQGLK

[3] = target: T3, recombinant cynomolgus/Rhesus TROP2 full-length extracellular domain (cynomolgus/Rhesus, UniProt P09758 27-274 (human entry)); assay: ELISA on coated recombinant TROP2 ECD, 1:5 dilutions from 1000 nM, RLU
T3 construct: also called cynomolgus TROP2
T3 chain: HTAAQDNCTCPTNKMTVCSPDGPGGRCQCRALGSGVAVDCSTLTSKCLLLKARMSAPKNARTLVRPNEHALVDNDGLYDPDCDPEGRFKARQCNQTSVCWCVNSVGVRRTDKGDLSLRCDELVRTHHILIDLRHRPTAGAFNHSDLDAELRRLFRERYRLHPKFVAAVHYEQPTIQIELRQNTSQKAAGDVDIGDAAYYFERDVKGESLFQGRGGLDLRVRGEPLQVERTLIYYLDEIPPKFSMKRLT
Experimental: (§1) TROP2 full-length extracellular domain recombinant proteins including cynomolgus/Rhesus (FIG. 12A), human (FIG. 12B), mouse (FIG. 12C), and rat (FIG. 12D) were coated on 96-well ELISA plates at the concentration of 1 μg/mL. Plates were covered with adhesive plate cover and stored at 4° C. overnight. The next day, plates were washed 3× with washing buffer (PBS with 0.1% Tween™ 20). Plates were blocked with 2% fat-free BSA in washing buffer for 1 hour at 37° C. During the incubation time, the anti-TROP2 sdAbs were diluted in the blocking buffer to the indicated concentrations. In brief, the anti-TROP2 sdAbs starting concentration was 1000 nM and serial diluted 1 in 5 to 0.02048 pM. After blocking, the blocking buffer was removed from the wells and 100 μL of anti-TROP2 sdAbs dilutions were transferred to the corresponding wells. Plates were covered with adhesive plates cover and incubated at 37° C. for 1 hour. During the primary antibody incubation, the secondary antibody (goat anti-human IgG, HRP conjugated) was diluted 1 in 5000 with the blocking buffer. Plates were washed 3× with blocking buffer, followed by secondary antibody incubation for another 1 hour at 37° C. After the secondary antibody incubation, plates were washed 3× with washing buffer and added with 100 μL of ELISA chemiluminescent substrate (Thermofisher). The luminescence signal was detected by SpectraMax i3x at […].

[4] = target: T4, recombinant human TROP2 extracellular domain (aa 1-274) comprising His tag (human, UniProt P09758 27-274); assay: as above
T4 construct: Used here for all assays on recombinant human TROP2 (ELISA, immunoblot, SPR, crystal), although only some of them name the catalogue number; also called human recombinant TROP2; recombinant human TROP2 protein; not shown: His tag
T4 sequence: T3 chain with V36M, N67S, V204I
Experimental: as §1

[5] = target: T4, recombinant human TROP2 extracellular …; assay: SPR
[6] = target: T5, HEK-TROP2 Δ27-96 (human, UniProt P09758); assay: flow cytometry, 100 nM antibody, transiently transfected HEK cells, APC anti-human Fc
T5 construct: deletion of residues 27-96, transiently expressed on HEK cells
T5 sequence (membrane protein on transfected HEK cells, looked up): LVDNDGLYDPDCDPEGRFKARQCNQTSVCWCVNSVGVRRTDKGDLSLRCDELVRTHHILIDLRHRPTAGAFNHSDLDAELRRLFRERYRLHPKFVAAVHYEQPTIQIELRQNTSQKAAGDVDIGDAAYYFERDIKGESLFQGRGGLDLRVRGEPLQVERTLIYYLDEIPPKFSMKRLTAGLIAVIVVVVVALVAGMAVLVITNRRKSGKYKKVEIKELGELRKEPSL
Experimental: (§2) To determine the effect of TROP2 truncations on the binding ability of anti-TROP2 sdAbs, the HEK parental cells were transiently transfected with human TROP2 mutants by lipofectamine. 24 hours after transfection, cells were collected and stained with anti-TROP2 antibodies (FIG. 13A and FIG. 13B). In brief, 1×10⁵ cells were incubated with an Fc receptor blocking antibody (1/100 dilution) for 10 minutes at room temperature. Anti-TROP2 antibodies were diluted in FACS staining buffer to 100 nM and added and incubated with cells for 30 minutes on ice. After washing three times with FACS staining buffer, APC-conjugated secondary antibodies recognizing the human Fc region (Biolegend, Cat #410712) were mixed with cells. After staining for 30 minutes, cells were washed three times, followed by resuspension into 100 μL of 7-Amino-Actinomycin D (7-AAD) solution (BD Biosciences, Cat #559925).

[7] = target: T6, TROP2 delta 27-56 on HEK cells (human, UniProt P09758 1-323); assay: as above
T6 construct: Human TROP2 with residues 27-56 deleted, transiently transfected into HEK cells; also called TROP2 with 27-56 regions truncated
T6 chain: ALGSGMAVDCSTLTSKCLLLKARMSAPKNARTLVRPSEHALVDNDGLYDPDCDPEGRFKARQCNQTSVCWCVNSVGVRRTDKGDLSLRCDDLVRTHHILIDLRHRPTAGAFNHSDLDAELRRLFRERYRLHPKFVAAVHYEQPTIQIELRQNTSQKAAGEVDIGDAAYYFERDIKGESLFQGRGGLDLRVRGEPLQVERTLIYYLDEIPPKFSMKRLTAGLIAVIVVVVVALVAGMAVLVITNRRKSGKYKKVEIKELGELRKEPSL
Experimental: as §2

T1 sequence (P02769 25-607 limits assumed): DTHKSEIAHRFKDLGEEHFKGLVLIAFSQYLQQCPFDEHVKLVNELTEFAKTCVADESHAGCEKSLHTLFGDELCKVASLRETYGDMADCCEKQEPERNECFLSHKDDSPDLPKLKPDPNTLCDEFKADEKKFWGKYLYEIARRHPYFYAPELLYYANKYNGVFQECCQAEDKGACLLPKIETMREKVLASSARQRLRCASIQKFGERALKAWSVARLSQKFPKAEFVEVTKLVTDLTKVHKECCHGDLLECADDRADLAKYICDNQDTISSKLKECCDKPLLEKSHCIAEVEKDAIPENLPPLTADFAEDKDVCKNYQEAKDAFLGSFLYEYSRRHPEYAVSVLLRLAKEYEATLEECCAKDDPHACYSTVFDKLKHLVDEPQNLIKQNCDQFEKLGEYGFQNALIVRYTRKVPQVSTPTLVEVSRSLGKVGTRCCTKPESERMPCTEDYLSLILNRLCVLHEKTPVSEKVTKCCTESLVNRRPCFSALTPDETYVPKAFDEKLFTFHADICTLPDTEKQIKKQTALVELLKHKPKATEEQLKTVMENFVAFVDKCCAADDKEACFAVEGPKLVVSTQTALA

B1: KD002 (antibody, human IgG1, V domains shown)
VH: QVQLQESGGGMVQVGGSLRLSCAASGFPFSSADMSWVRQAPGKGPEWVSYINADGSKTYYPDSVKGRFTISRDNAKNTLYLLMNNLKPEDTALYRCARAKLTDTHYVEDYWGQGTQVTVSS
notes: also called anti-TROP2 sdAb KD002
binding result [1]: no binding (tested: 200 nM) | binding result [2]: no binding (tested: 200 nM) | EC50 (read off the curve) [3]: ~0.2 nM | EC50 (read off the curve) [4]: ~0.2 nM | Kd [5]: 0.0432 nM | koff [5]: 5.69e-05 s⁻¹ | kon [5]: 1.32e+06 M⁻¹ s⁻¹ | binding result [6]: no binding (tested: 100 nM) | binding result [7]: no binding (tested: 100 nM)

B2: KD003 (antibody, human IgG1, V domains shown)
VH: B1 VH with V14P, P28T, S31N, A32Y, D54G, K57N, Y59D, T78M
notes: also called anti-TROP2 sdAb KD003
binding result [1]: no binding (tested: 200 nM) | binding result [2]: no binding (tested: 200 nM) | EC50 (read off the curve) [3]: ~0.2 nM | EC50 (read off the curve) [4]: ~0.2 nM | Kd [5]: 0.0459 nM | koff [5]: 4.88e-05 s⁻¹ | kon [5]: 1.06e+06 M⁻¹ s⁻¹ | binding result [6]: no binding (tested: 100 nM) | binding result [7]: no binding (tested: 100 nM)

B3: KD001 (antibody, human IgG1, V domains shown)
VH: QVQLQESGGGMVHPGGSLRLSCAASGFTFSGSDMSWVRQAPGKGPEWVSYITSGGTTYYPDSVKGRFTISRDNAKNTLYLQMNSLTPDDTALYRCAKARLTDSHYVEDAWGQGTQVTVSS
notes: also called anti-TROP2 sdAb KD001
binding result [1]: no binding (tested: 200 nM) | binding result [2]: no binding (tested: 200 nM) | EC50 (read off the curve) [3]: ~0.2 nM | EC50 (read off the curve) [4]: ~0.2 nM | Kd [5]: 0.0826 nM | koff [5]: 7.54e-05 s⁻¹ | kon [5]: 913000 M⁻¹ s⁻¹ | binding result [6]: no binding (tested: 100 nM) | binding result [7]: no binding (tested: 100 nM)

B6: KD007 (antibody, human IgG1, V domains shown)
VH: QVQLQESGGGLVQPGGSLRLSCAASGFAFSFYAMAWYRQAPGKQRDMVATITAYGNTNYADSVKGRFTTSRDNAKNTVYLQMNSLKPEDTAVYVCNANLPSASHNYWGQGTQVTVSS
notes: also called anti-TROP2 sdAb KD007
binding result [6]: no binding (tested: 100 nM) | binding result [7]: no binding (tested: 100 nM)

Now from value to binder:

binding result [1]: no binding (tested: 200 nM) | binding result [2]: no binding (tested: 200 nM) | EC50 (read off the curve) [3]: ~0.2 nM | EC50 (read off the curve) [4]: ~0.2 nM | Kd [5]: 0.0294 nM | koff [5]: 4.42e-05 s⁻¹ | kon [5]: 1.51e+06 M⁻¹ s⁻¹ | binding result [6]: no binding (tested: 100 nM) | binding result [7]: no binding (tested: 100 nM)
B4: KD004 (antibody, human IgG1, V domains shown)
VH: B3 VH with M11L, H13Q, G16R, S53G, G54S, I69T, T77M, T86K
notes: also called anti-TROP2 sdAb KD004

binding result [1]: no binding (tested: 200 nM) | binding result [2]: no binding (tested: 200 nM) | EC50 (read off the curve) [3]: ~0.2 nM | EC50 (read off the curve) [4]: ~0.2 nM | Kd [5]: 0.0268 nM | koff [5]: 4.27e-05 s⁻¹ | kon [5]: 1.59e+06 M⁻¹ s⁻¹ | binding result [6]: no binding (tested: 100 nM) | binding result [7]: no binding (tested: 100 nM)
B5: KD005 (antibody, human IgG1, V domains shown)
VH: B3 VH with M11L, H13E, P14A, T86K, A98S
notes: also called anti-TROP2 sdAb KD005
